T1: human IL-33 (R&D Systems, #3625-IL-010/CF) (human, UniProt O95760 112-270)
T1 sequence (looked up): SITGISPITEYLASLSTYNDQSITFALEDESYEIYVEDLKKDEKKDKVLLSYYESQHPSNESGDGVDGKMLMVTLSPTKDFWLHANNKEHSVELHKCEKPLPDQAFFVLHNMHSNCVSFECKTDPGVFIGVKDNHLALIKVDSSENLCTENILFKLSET

T2: cynomolgus monkey IL-33 expressed with a C-terminal hexahistidine tag (cynomolgus monkey)
T2 chain: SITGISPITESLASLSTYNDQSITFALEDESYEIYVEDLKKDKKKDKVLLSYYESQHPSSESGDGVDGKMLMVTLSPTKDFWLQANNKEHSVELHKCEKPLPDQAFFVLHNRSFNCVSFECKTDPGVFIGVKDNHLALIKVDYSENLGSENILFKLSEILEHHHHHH

T3: biotinylated hIL-33 protein (R&D systems, Cat #3625-IL/CF) (human, UniProt O95760 112-270, biotinylated (sites not given))
T3 construct: Same commercial protein as m21, biotin-labelled; also called biotin-hIL-33
T3 sequence (looked up): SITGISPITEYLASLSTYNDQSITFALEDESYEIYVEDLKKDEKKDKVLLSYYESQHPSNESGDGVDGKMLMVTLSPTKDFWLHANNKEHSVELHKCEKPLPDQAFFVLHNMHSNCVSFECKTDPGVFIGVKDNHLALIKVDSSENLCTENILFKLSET


Legend:
[1] = molecular target: T1, human IL-33 (R&D Systems, …); assay: cell-based or functional assay
[2] = molecular target: T2, cynomolgus monkey IL-33 expressed with …; assay: cell-based or functional assay
[3] = molecular target: T1, human IL-33 (R&D Systems, …); assay: BLI; hIL-33 pre-mixed with mAb-2 H1M9565N
Protocol: (§1) Binding competition between a panel of different anti-IL-33 monoclonal antibodies was determined using a real time, label-free bio-layer interferometry assay on an Octet® HTX biosensor (ForteBio, A Division of Pall Life Sciences). The experiment was performed at 25° C. using a buffer of 0.01M HEPES pH7.4, 0.15M NaCl, 0.05% v/v Surfactant Tween-20, and 0.1 mg/ml BSA (HBS-ET kinetics buffer) with the plate shaking at a speed of 1000 rpm. To assess whether two antibodies were able to compete with one another for binding to human IL-33, a pre-mix assay format was used where 100 nM of human IL-33 (R&D Systems; #3625-IL-010/CF) was pre-mixed with 500 nM of different anti-IL-33 monoclonal antibodies (subsequently referred to as mAb-2) for at least 2 hours prior to running the binding competition assay. […] Following the capture step, unoccupied anti-mouse Fc polyclonal antibody and anti-human Fc polyclonal antibody on the Octet biosensors were saturated by submerging them for 4 minutes into wells containing 200 μg/mL of a non-specific monoclonal antibody with a mouse Fc or with a human Fc, respectively. Finally, the Octet biosensors were immersed for 4 minutes into wells containing the pre-mixed samples of 100 nM of human IL-33 and 500 nM of mAb-2. At the end of each cycle, the non-covalently captured anti-IL-33 antibodies along with the bound pre-complex of human IL-33 and mAb-2 were removed from the biosensors using three alternate 20 second immersions into 10 mM HCl followed by submerging into HBS-ET kinetics buffer. The biosensors were washed in HBS-ET kinetics buffer in between every step of the experiment. The real-time binding response was monitored during the binding events, and the binding response (in units of nm) at the end of every step was recorded.

[4] = molecular target: T3, biotinylated hIL-33 protein (R&D …); assay: competition ELISA, 30 pM biotin-hIL-33 on coated hST2-hFc
Protocol: The ability of anti-IL-33 antibodies to block either human IL-33 (hIL-33) or cynomologus monkey IL-33 binding to the human ST2 receptor was measured using a competition sandwich ELISA. […] The antibody/IL-33 mixtures were incubated for 1 hour at room temperature before they were transferred to the hST2-hFc-coated microtiter plates. After incubating for 1 hour at room temperature, the wells were then washed, and plate-bound biotin-hIL-33 was detected with streptavidin conjugated with horse-radish peroxidase (HRP) (Thermo Scientific, Cat # N200), and plate-bound MfIL-33-6His was detected with a HRP conjugated anti-His monoclonal antibody (Qiagen, #34460). All samples were developed with a TMB solution (BD biosciences, #51-2607KC) to produce a colorimetric reaction and then quenched by acidification with 1M sulfuric acid before measuring absorbance at 450 nm on a Victor X5 plate reader. Data analysis was performed using a sigmoidal dose-response model within Prism™ software. […] Percent blockade was calculated as the ratio of the reduction in signal observed in the presence of antibody relative to the difference between the signal with IL-33 alone and background (signal from HRP-conjugated secondary antibody or streptavidin alone). The absorbance measured for the constant concentration of biotin-hIL-33 or MfIL-33-6His alone is defined as 0% blocking and the absorbance measured for no added IL-33 is defined as 100% blocking.

[5] = molecular target: T1, human IL-33 (R&D Systems, …); assay: BLI; hIL-33 pre-mixed with mAb-2 Isotype control 2
Protocol: as §1

[6] = molecular target: T2, cynomolgus monkey IL-33 expressed with …; assay: BLI; captured MfIL-33-6His, mAb-1 step with Buffer
Protocol: Binding competition between a panel of different anti-IL-33 monoclonal antibodies was determined using a real time, label-free bio-layer interferometry assay on an Octet® HTX biosensor (ForteBio, A Division of Pall Life Sciences). The experiment was performed at 25° C. using a buffer of 0.01M HEPES pH7.4, 0.15M NaCl, 3 mM EDTA, 0.05% v/v Surfactant Tween-20, and 0.1 mg/ml BSA (HBS-ET kinetics buffer) with the plate shaking at a speed of 1000 rpm. […] The antigen-captured biosensors were then saturated with a first anti-IL-33 monoclonal antibody (subsequently referred to as mAb-1) by immersion into wells containing 50 μg/mL solution of mAb-1 for 5 minutes. The biosensors were then dipped into wells containing a 50 μg/mL solution of a second anti-IL-33 monoclonal antibody (subsequently referred to as mAb-2) for 4 minutes. The biosensors were washed in HBS-ET kinetics buffer in between every step of the experiment. The real-time binding response was monitored during the experiment, and the maximum binding response for each binding step was recorded. The response of mAb-2 binding to MfIL-33-6His pre-complexed with mAb-1 was measured, and competitive/non-competitive behavior of different anti-IL-33 monoclonal antibodies with respect to each other was determined.

Binder | IC50, inhibition of 10 pM hIL-33 activation of HEK293/hST2/NFkB-luciferase cells [1] | IC50, inhibition of 5 pM MfIL-33-6His activation of HEK293/hST2/NFkB-luciferase cells [2] | mAb-1 Binding to the Pre-complex of mAb-2 & hIL-33 [3] | % Maximum blocking [4] | IC50 [4] | mAb-1 Binding to the Pre-complex of mAb-2 & hIL-33 [5] | mAb-2 Binding to the Pre-complex of mAb-1 & MfIL-33-6xHis [6]
H1M9565N (antibody, mouse IgG1, V domains shown, Human variable domains, mouse IgG1 Fc (H1M)) VH: QVTLKESGPVLVKPTESLTLTCSVSGFSLSNVRMGVSWIRQSPGKALEWLAHIFSNDEKSYTTSLKTRLTISKDTSRSQVVLTMTDMDPGDTATYYCARIRNLAFNYWGQGTLVTVSS VL: not shown | 2.9e-08 M | 1.7e-08 M |  | 68% | 22 nM | 0.03 nm | 0.34 nm
H4H9629P (antibody, human IgG4, V domains shown, Human IgG4 Fc (H4H)) VH: EVQLVESGGGLVQPGGSLRLSCAASGFTFRSFAMSWVRQAPGKGLELVSDLRTSGGSTYYADSVKGRLTISRDNSKNTLYLQMNSLRAEDTAVYYCAKSHYSTSWFGGFDYWGQGTLVTVSS VL: DIQMTQSPSSVSASVGDRVTITCRASQGFSSWLAWYQQKPGKAPKLLIYAASSLQSGVPSRFSGSGSGTDFTLTITNLQPEDFATYYCQQANSFPLTFGGGTKVEIK | 1.3e-11 M | 5.5e-08 M | 0.74 nm | 80% | 0.45 nM | 0.14 nm | 0.3 nm
H4H9633P (antibody, human IgG4, V domains shown, Human IgG4 Fc (H4H)) VH: EVQLVESGGGLVQPGGSLRLSCAASGFTFSSYVMSWVRQAPGKGLEWVSSISGNGGSTNYADSVKGRFTISRDNSKNTLFLEMNSLRAEDTAVYYCAKSLGTTTTFLGFDYWGQGTLVTVSS VL: DIQMTQSPSSVSASVGDRVTITCRASQGISSWLAWYQQKPGKAPKLLIYAASSLQSGVPSRFSGSGSGTYFTLTISSLQPEDFATYYCQQANSFPLTFGGGTKVEIK | 2.2e-10 M | 1.3e-07 M | 0.66 nm | 66% | 0.44 nM | 0.15 nm | 0.32 nm
H4H9659P (antibody, human IgG4, V domains shown, Human IgG4 Fc (H4H)) VH: QVQLVQSGAEVKKPGASVKVSCKASGYTFNSYGISWVRQAPGQGLEWMGWISSHNGNSHYVQKFQGRVSMTTDTSTSTAYMELRSLRSDDTAVYYCARHSYTTSWYGGFDYWGQGTLVTVSS VL: DIQMTQSPSSVSASVGDRVTITCRASQGFSSWLAWYQQKPGKAPQLLIYAASSLQSGVPSRFSGSGSGSDFTLTISSLQPEDFATYYCQQANSFPLTFGGGTKVEIK | 4.7e-11 M | 3.3e-09 M | 0.52 nm | 78% | 0.4 nM | 0.09 nm | 0.31 nm

The next binders have a lower IC50 [4] than those just listed; values first:

IC50, inhibition of 10 pM hIL-33 activation of HEK293/hST2/NFkB-luciferase cells [1] | IC50, inhibition of 5 pM MfIL-33-6His activation of HEK293/hST2/NFkB-luciferase cells [2] | mAb-1 Binding to the Pre-complex of mAb-2 & hIL-33 [3] | % Maximum blocking [4] | IC50 [4] | mAb-1 Binding to the Pre-complex of mAb-2 & hIL-33 [5] | mAb-2 Binding to the Pre-complex of mAb-1 & MfIL-33-6xHis [6] | Binder
2.5e-10 M | 3.5e-09 M | 0.08 nm | 55% | 0.19 nM | 0.1 nm | 0.37 nm | H1M9568N (antibody, mouse IgG1, V domains shown, Human variable domains, mouse IgG1 Fc (H1M)) VH: QVLLVQSGAEVKKPGATVKVSCKASGSTFTGYYMHWVRQAPGQGLEWMGWINPNNGGTNYAQKFQGRVTMTRDTSISTAYMELSRLRSDDTAVYYCARELRYNWKSWGQGTLVTVSS VL: EIVLTQSPGTLSLSPGERVTLSCRASQSVGRPYLAWYQQIPGQAPRLLIYGASSRATDIPDRFSGNGSGTDFTLTISRLEPEDFAVYYCQQYDNSPYTFGQGTRLEIK
9.5e-10 M | 1.5e-09 M | 0.17 nm | 69% | 0.32 nM | 0.1 nm | 0.39 nm | H1M9566N (antibody, mouse IgG1, V domains shown, Human variable domains, mouse IgG1 Fc (H1M)) VH: EVQLLESGGDLVQPGGSLRLSCAASGFTFSSYAMSWVRQAPGKGLEWVSVISGSGSSTDYADSVKGRFTISRDNSRDTLHLQMNSLRAEDTAVYYCAKTFYYFYGLDVWGQGTTVTVSS VL: DIQMTQSPSSLSASLRDRVTITCRASQGISNYLAWYQQKPGKVPKVLIYAASTLQSGVPSRFSGSGSGTVFTLTISSLQTEDVATYYCQKYSSAPFTFGPGTKVDIK
3.5e-11 M | 1.9e-08 M | 0.53 nm | 57% | 0.31 nM | 0.15 nm | 0.3 nm | H4H9660P (antibody, human IgG4, V domains shown, Human IgG4 Fc (H4H)) VH: EVQLVESGGGLVQPGGSLRLSCAASGITLSSYGMSWVRQAPGKGLEWVASIFGSGGGPYYADSVKGRFTMSRDNSKNTLYLQMNSLRAEDTAVYYCAKDRYSGSYYGGFDYWGRGTLVTVSS VL: DIQMTQSPSSVSASVGDRVTITCRASQGITSWLAWYQQKPGKAPTLLIYAASSLQTGVPSRFSGSGSGTDFTLTISSLQPEHFATYYCQQANSFPPTFGGGTKVEIK
3e-11 M | 1.4e-08 M | 0.57 nm | 78% | 0.35 nM | 0.1 nm | 0.33 nm | H4H9640P (antibody, human IgG4, V domains shown, Human IgG4 Fc (H4H)) VH: QVQLQESGPGLVKPSETLSLTCTVSGGSISSYYWSWIRQPPGKGLELIGYIYYSGSTNYNPSLKSRVTISVDTSKNHFSLKLSSVTAADTAVYYCARSQYTSSWYGSFDIWGQGTMVTVSS VL: DIQMTQSPSSVSASVGDRVTITCRASQGISTWLAWFQQKPGKAPKLLIYAASTLQGGVPSRFSGSGSGPEFTLTISSLQPEDFATYYCQQANSFPWTFGQGTKVEIK

Reference: patent publication US20160362487A1 (Regeneron, published 2016)
